The source of these data is patent US20220056125A1.

This experiment addresses cynomolgus PAR-2 on cells (cynomolgus monkey). Briefly: cell-based or functional assay.

B1: P24E1102 (antibody, human IgG4 S228P, kappa, V domains shown)
VH: QVQLVQSGAEVKKPGSSVKVSCKASGFSLSSYAISWVRQAPGQGLEWMGVIWGNQNVYYAQKFQGRVTITADESTSTAYMELSSLRSEDTAVYYCARWKGYKDYPFDYWGQGTLVTVSS
VL: EIVLTQSPATLSLSPGERATLSCRASQNVYKWLDWYQQKPGQAPRLLIYNANTRATGIPARFSGSGSGRDFTLTISSLEPEDFAVYYCQQHHSGWTFGGGTKVEIKR
As to B1, the IC50 mean, calcium flux at SLIGKV EC80, Nomad line was determined as 3.98 nM and the IC50 mean, β-arrestin at SLIGKV EC80, Nomad line came to 15.2 nM.
